doi:10.1101/2021.04.26.441214 (bioRxiv, 2021)

B1: T. maritima ferritin-like protein (FLP) cargo (natural protein, UniProt Q9WZP3 1-114, looked up)
chain: MADQYHEPVSELTGKDRDFVRALNSLKEEIEAVAWYHQRVVTTKDETVRKILEHNRDEEMEHAAMLLEWLRRNMPGWDEALRTYLFTDKPITEIEEETSGGSENTGGDLGIRKL

Columns and labels:
Test in all cases: cryo-EM structure
[1] = biological target: T. maritima encapsulin shell protein (wild type) (T. maritima) (UniProt Q9WZP2)
[2] = biological target: the molecule itself
[3] = biological target: T. maritima encapsulin shell protein (wild type) (T. maritima) (UniProt Q9WZP2); remark: listed apart in the source

T. maritima encapsulin shell protein (wild type) (T. maritima), sequence (Q9WZP2 whole entry): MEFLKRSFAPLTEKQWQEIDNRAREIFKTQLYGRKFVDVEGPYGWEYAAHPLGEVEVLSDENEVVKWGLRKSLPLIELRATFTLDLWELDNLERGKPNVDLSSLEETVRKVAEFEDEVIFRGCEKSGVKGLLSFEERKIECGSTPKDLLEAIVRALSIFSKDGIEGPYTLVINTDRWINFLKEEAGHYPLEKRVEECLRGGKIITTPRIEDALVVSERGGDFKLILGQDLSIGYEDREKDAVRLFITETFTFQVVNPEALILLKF

Row | Molecule | stoichiometry N (subunits per shell) [1] | stoichiometry N [2] [subunits] | FLPs per shell (2D class averages) (FLPs per shell) [3]
1 | T. maritima encapsulin shell protein (wild type) (from UniProt Q9WZP2 1-265) (natural protein) | 60 |  | 
2 | B1 |  | 10 | 2
